Data on 16 sequences can be found in the nanobody polyreactivity screen of Harvey et al. (2022).

The data set in a line: yeast display, Sf9 membrane polyspecificity reagent, FACS + sequencing; frameworks hold sequencing errors. In a few lines: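 Sorting gates, low and high (top ~1%), were placed on anti-HA fluorescence to track expression and on streptavidin fluorescence to track reagent binding. A clone's polyreactivity label is taken from the gate it came out of. The reagent was 10% biotinylated, detergent-solubilized Sf9 membrane, applied for 1 hour at 4 °C to galactose-induced yeast display cells.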
With “QVQLVESGGGLVQAGGSLRLSCAASGSTFYYYAMGWYRQAPGKERELVATISRSTARTFYADSVKGRFTISRDNAKNTVYLQMNSLKPEDTAVYYCAATSYVSVYPSYYRFGTYGYWGQGTQVTVSS”, the “polyreactivity (PSR sort gate)” value was “high polyreactivity”.
Next, “QVQLVESGGGLVQAGGSLRLSCAASGSTFYYYAMGWYRQAPGKERELVATISSGSSTNYADSVKGRFTISRDNAKNTVYLQMNSLKPEDTAVYYCATDGDPAYPEMEYWGQGTQVTVSS”: “low polyreactivity”; “QVQLVESGGGLVQAGGSLRLSCAASGSTFYYYGMGWYRQAPGKERELVAAINWSGGTTYYADSVKGRFTISRDNAKNTVYLQMNSLKPEDTAVYYCATEHNHLGYYYWGQGTQVTVSS”: “low polyreactivity”; “QVQLVESGGGLVQAGGSLRLSCAASGSTFYYYTMGWYRQAPGKERELVATITYRSGNTYYADSVKGRFTISRDNAKNTVYLQMNSLKPEDTAVYYCAALRRVLPYKRYDYWGQGTQVTVSS”: “high polyreactivity”.
For “QVQLVESGGGLVQAGGSLRLSCAASGSTFYYYTMGWYRQAPGKERELVDISWDGDSTYSADSVKGRFTISRDNAKNTVYLQMNSLKPEDTAVYYCAAADYYLPDDVSDYVDANFDYWGQGTQVTVSS” the value was “low polyreactivity”; for “QVQLVESGGGLVQAGGSLRLSCAASGSTGGYAMGWYRQAPGKERELVARISYSGGSTYYADSVKGRFTISRDNAKNTVYLQMNSLKPEDTAVYYCAARILYRYYYWGQGTQVTVSS”, “high polyreactivity”.
For “QVQLVESGGGLVQAGGSLRLSCAASGSTHGYAMGWYRQAPGKERELVAAISLNTGSTYYADSVKGRFTIARDNAKNTVYFQMNSLKPEYTAVYYCNADDYTYATYEYDYWGQGTLVTVSS” the value was “low polyreactivity”; for “QVQLVESGGGLVQAGGSLRLSCAASGSTIAYYAMGWYRQAPGKERELVAAISKRGGSTYYADSVKGRFTISRDNAKNTVYLQMNSLKPEDTAGYYCATGRSTDKGYYFWGQGTQVTVSS”, “high polyreactivity”; for “QVQLVESGGGLVQAGGSLRLSCAASGSTIDGYAMGWYRQAPGKEREFVAAISFSSASTYYADSVKGRFTISRDNAKNTVYLQMNSLKPEDTAVYYCNADFFDSGGSIEYDSWGQGSQVTVSS”, “low polyreactivity”.
Regarding “QVQLVESGGGLVQAGGSLRLSCAASGSTIDYYAMGWYRQAPGKERELVAAIDWSGDSTYYADSVKGRFTISRDNAKNTVYLQMNSLKPEDTAVYYCAADLDSRGTYGRYEYWGQGTQVTVSS”, the “polyreactivity (PSR sort gate)” value is “low polyreactivity”.
For the sequence “QVQLVESGGGLVQAGGSLRLSCAASGSTIFPYAMGWYRQAPGKERELVAAITSGGNTNYADSVKGRFTISRDNAKNTVYLQMNSLKPEDTAVYYCAADYFWHYRKYDYWGQGTQVTVSS”, the “polyreactivity (PSR sort gate)” value is “low polyreactivity”.
For “QVQLVESGGGLVQAGGSLRLSCAASGSTIGANAMGWSRQAPGKERELVAAISLSGGTSYADSVKGRFTISRDNAKNTVYLQMNSLKPEDTAVYYCAAPGRGWFDWYAHYYWGQGTQVTVSS” the value was “low polyreactivity”; for “QVQLVESGGGLVQAGGSLRLSCAASGSTIGAYAMGWYRPAPGKERELVAAISRRGGSTYYADSVKGRFTISRDNAKNTVYLQMNSLKPEDSAVYYCNAVGTRVDGEHYYWGQGTQVTVSS”, “high polyreactivity”.
As for “QVQLVESGGGLVQAGGSLRLSCAASGSTIGFYAMGWYRQAPGKERELVAVISSGDSTYYADSVKGRFTISRDNAKNTVYLQMNSLKPEDTAVYYCAKDALVIDGGGGYDYWGQGTQVTVSS”, the “polyreactivity (PSR sort gate)” value is “low polyreactivity”.
For “QVQLVESGGGLVQAGGSLRLSCAASGSTIGLNARGWYRQAPGKERELVAAITRSDITNYADSVKGRFTISRDNAKNTVYLQMNRLKPEDTEVYYCAAESPLYWVDDFESGWRYYYSGQGTQVTVSS” the value was “low polyreactivity”; for “QVQLVESGGGLVQAGGSLRLSCAASGSTIGRYAMGWYRQAPGKERELVAAISSSGDRTYYADSVKGRFTISRDNAKNTVYLQMNSLKPEDTAVYYCNSRRLFSGYDYWGQGTQVTVSS”, “high polyreactivity”.
